# Assay results reported in the RNAGym collection of RNA variant scans (doi:10.7554/elife.80360).
# B1: CPEB3 Ribozyme (parent)
# chain: GGGGGCCACAGCAGAAGCGUUCACGUCGCGGCCCCUGUCAGAUUCUGGUGAAUCUGCGAAUUCUGCUGU
# Variants of: B1
# Assay: self-cleavage, relative activity (ratio to wild type); higher = more cleavage; co-transcriptional
row,Variant,self-cleavage
1,G17U C57U,0.228
2,G17C G41C,0.156
3,G17C G41U,0.123
4,G17C C54G,0.166
5,G17C C54A,0.1
6,G17U G28C,0.11
7,G17U G28A,0.108
8,C18A C22A,0.144
9,C18A C22U,0.0813
10,C18A C22G,0.159
11,G17A G19C,0.095
12,G17A G19A,0.154
13,G17A G19U,0.114
14,G17C C22G,0.156
15,G17C C22A,0.117
16,C18A A42U,0.0858
17,C18A A42C,0.166
18,C18A C54G,0.179
19,C18A C54U,0.173
20,G17C U67C,0.145
21,G17C U67G,0.209
22,G17U G58U,0.65
23,G17U G58C,0.527
24,G17A G30A,0.164

row,Variant,self-cleavage
1,G17A G30U,0.176
2,G17A U26G,0.413
3,G17A U26C,0.335
4,G17A C63G,0.257
5,G17A C63A,0.171
6,G17U C32A,0.154
7,G17C G47C,0.212
8,G17C C33A,0.152
9,G17C C33U,0.139
10,G17C G37A,0.0971
11,G17C G37C,0.0977
12,G17U C54G,0.166
13,C18A C35G,0.104
14,C18A C35U,0.222
15,G17A U21A,0.384
16,G17A U21G,0.128
17,G17A U21C,0.169
18,G17U A59G,0.357
19,G17U A59U,0.147
20,C18A,0.2
21,G17U G25C,0.107
22,G17U G25A,0.143
23,G17U U26G,0.297
24,G17U U26A,0.312

row,Variant,self-cleavage
1,G17U U26C,0.286
2,G17U C66G,0.24
3,G17A U61G,0.237
4,G17C C35A,0.135
5,G17U C39G,0.289
6,G17U C39A,0.167
7,G17C U55C,0.138
8,G17C U55G,0.062
9,G17C U69A,0.246
10,G17C U69G,0.303
11,G17A C39U,0.213
12,G17A G41A,0.133
13,G17A G41C,0.141
14,G17A G41U,0.183
15,G17U A42U,0.334
16,G17U A42C,0.299
17,C18A A59C,0.0942
18,G17C C27A,0.129
19,G17C C27G,0.156
20,G17U C18G,0.138
21,G17U C18U,0.155
22,G17U C18A,0.137
23,G17C U20G,0.132
24,G17C U20A,0.123

row,Variant,self-cleavage
1,G17C G56C,0.105
2,G17C G56U,0.115
3,G17C G56A,0.103
4,G17U U55A,0.177
5,G17U U55G,0.238
6,G17A C66U,0.347
7,G17A C66A,0.226
8,G17A C66G,0.233
9,G17C A51G,0.126
10,G17C A51U,0.173
11,G17U G41A,0.152
12,G17U G41C,0.14
13,G17U G41U,0.194
14,G17C C39A,0.081
15,G17C C39G,0.115
16,G17C C57A,0.147
17,G17C C57U,0.18
18,G17C U49G,0.148
19,G17C U49A,0.149
20,G17C U49C,0.158
21,G17A U20C,0.0978
22,G17A U55G,0.16
23,G17C G31C,0.14
24,G17C G31U,0.103

row,Variant,self-cleavage
1,G17C G25A,0.15
2,G17C G25C,0.12
3,G17C G25U,0.107
4,G17U G65U,0.292
5,G17U G65A,0.254
6,G17C C24G,0.208
7,G17C C24U,0.109
8,G17C C24A,0.141
9,G17C C34G,0.157
10,G17C C34A,0.18
11,G17C C34U,0.174
12,G17U U44C,0.368
13,G17U U44A,0.395
14,G17U G50U,0.552
15,G17U G50A,0.571
16,G17U G50C,0.386
17,C18A A40U,0.0764
18,C18A A40G,0.176
19,G17C U64C,0.203
20,G17C U64A,0.112
21,G17C U64G,0.171
22,C18A C27A,0.163
23,G17U C45U,0.528
24,G17U C45G,0.395

row,Variant,self-cleavage
1,G17U U62C,0.23
2,G17U U62A,0.281
3,G17U U62G,0.316
4,G17A C45A,0.366
5,G17A C45G,0.435
6,G17U U69C,0.874
7,G17A U64C,0.242
8,G17A U64A,0.211
9,G17A U64G,0.256
10,G17C C18U,0.169
11,G17U G68A,0.875
12,G17C A42U,0.151
13,G17C A42C,0.14
14,G17C G28U,0.111
15,G17C G28C,0.129
16,G17C G28A,0.127
17,G17U U53A,0.265
18,G17U U53G,0.336
19,G17U U67C,0.537
20,G17C A52U,0.133
21,G17C A52G,0.196
22,C18A A60U,0.131
23,G17A G37A,0.153
24,G17A G37C,0.149

row,Variant,self-cleavage
1,G17U G30U,0.168
2,G17U G30C,0.119
3,C18A A23G,0.171
4,G17A G28U,0.139
5,G17A G28A,0.145
6,G17A U62G,0.198
7,G17A U62C,0.193
8,G17C C32A,0.113
9,G17C C32U,0.136
10,G17U G48U,0.694
11,G17U G48C,0.635
12,G17A C57G,0.227
13,G17A C57U,0.197
14,G17A C57A,0.145
15,G17U A60U,0.229
16,G17U A60G,0.248
17,G17U A60C,0.185
18,G17U A40U,0.149
19,G17C A23G,0.116
20,G17C A23U,0.103
21,G17C A23C,0.178
22,G17C C63U,0.139
23,G17C C63G,0.103
